The values that follow come from patent publication US20020053098.

Data set [1] concerns the target wild type Arabidopsis AHAS large subunit protein (pAC774) (UniProt P17597).
The target in data set [2] is herbicide-resistant mutant (Met124His) Arabidopsis AHAS large subunit protein (UniProt P17597).

Sequence of Arabidopsis AHAS small subunit protein expressed from plasmid F1 (chain, as listed by the source): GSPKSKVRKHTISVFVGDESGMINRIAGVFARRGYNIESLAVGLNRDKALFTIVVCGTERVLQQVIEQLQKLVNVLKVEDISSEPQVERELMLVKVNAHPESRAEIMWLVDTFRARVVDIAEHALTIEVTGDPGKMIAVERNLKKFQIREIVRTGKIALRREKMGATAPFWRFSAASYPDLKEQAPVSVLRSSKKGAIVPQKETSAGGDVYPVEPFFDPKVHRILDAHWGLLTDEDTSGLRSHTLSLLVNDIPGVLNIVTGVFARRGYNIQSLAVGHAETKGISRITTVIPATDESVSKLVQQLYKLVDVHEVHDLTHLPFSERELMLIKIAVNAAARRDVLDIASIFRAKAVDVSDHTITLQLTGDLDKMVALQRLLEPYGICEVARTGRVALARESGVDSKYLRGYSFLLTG

In the case of “Arabidopsis AHAS small subunit protein expressed from plasmid F1”, the “AHAS enzymatic activity of the large subunit in vitro, with increasing amounts of small subunit” value in data set [1] is on record as “small subunit protein enhances the level of enzymatic activity of the catalytic large subunit”. In data set [2], the “AHAS enzymatic activity of the mutant large subunit in vitro, in the presence of small subunit” value is given as “the enzymatic activity of a herbicide-resistant form of the large subunit is also enhanced”.
